In article PMC10062202 one finds Km and kcat data, which are given here for 1 protein.

Substrate in the data set: CC(=O)O
Description: purified protein. The following applies: 5 mM ATP, 2.5 mM CoA, 6 mM MgCl2, pH 7.5, 37 °C, His-tagged.

B1: atACS (Arabidopsis acetyl-CoA synthetase) (Arabidopsis thaliana) (protein)
chain: ASEENDLVFPSKEFSGQALVSSPQQYMEMHKRSMDDPAAFWSDIASEFYWKQKWGDQVFSENLDVRKGPISIEWFKGGITNICYNCLDKNVEAGLGDKTAIHWEGNELGVDASLTYSELLQRVCQLANYLKDNGVKKGDAVVIYLPMLMELPIAMLACARIGAVHSVVFAGFSADSLAQRIVDCKPNVILTCNAVKRGPKTINLKAIVDAALDQSSKDGVSVGICLTYDNSLATTRENTKWQNGRDVWWQDVISQYPTSCEVEWVDAEDPLFLLYTSGSTGKPKGVLHTTGGYMIYTATTFKYAFDYKSTDVYWCTADCGWITGHSYVTYGPMLNGATVVVFEGAPNYPDPGRCWDIVDKYKVSIFYTAPTLVRSLMRDDDKFVTRHSRKSLRVLGSVGEPINPSAWRWFFNVVGDSRCPISDTWWQTETGGFMITPLPGAWPQKPGSATFPFFGVQPVIVDEKGNEIEGECSGYLCVKGSWPGAFRTLFGDHERYETTYFKPFAGYYFSGDGCSRDKDGYYWLTGRVDDVINVSGHRIGTAEVESALVLHPQCAEAAVVGIEHEVKGQGIYAFVTLLEGVPYSEELRKSLVLMVRNQIGAFAAPDRIHWAPGLPKTRSGKIMRRILRKIASRQLEELGDTSTLADPSVVDQLIALADV
Take B1: the Km (usually the substrate concentration at which the rate is half of its maximum) stood at 180 ± 30 µM and the kcat – broadly, the maximal rate divided by the concentration of active sites – was found to be 15.05 ± 0.65 s⁻¹.
